This test addresses LAT-1(37-542)^GPS(T530A)::6xHis (C. elegans). In words: AUC; sedimentation equilibrium of the dimer fraction of the LAT-1 ectodomain; 20 uM - 60 uM protein, native conditions in PBS, 20°C / room temperature, 48 hr at 17,000 and 20,000 rpm, ideal monodisperse model.

In turn, “LAT-1(37-542)^GPS(T530A)::6xHis (domain or fragment)” gave a stoichiometry N of 2.

A word on the stoichiometry N: it is a count of units in the complex or per binding partner.

The values are drawn from article PMC3776922.
